Data as given in the Human Domainome abundance scans (Beltran et al. 2025).

B1: Nucleolar transcription factor 1, residues 408 to 469; numbered along this chain, P17480 (parent)
chain: KRPVSAMFIFSEEKRRQLQEERPELSESELTRLLARMWNDLSEKKKAKYKAREAALKAQSER
B2: Zinc finger MYM-type protein 3, residues 589 to 668; numbered along this chain, Q14202 (parent)
chain: LSCHYCHSLFSGKPEVLDWQDQVFQFCCRDCCEDFKRLRGVVSQCEHCRQEKLLHEKLRFSGVEKSFCSEGCVLLYKQDF

Variants of: B1
Experiment: abundance fitness (aPCA) (normalised: wild type 0, dead -1); higher = more abundant; growth selection in yeast, the domain comes from the species named
Conditions: Homo sapiens

Abundance fitness: each site, then its substitutions
S5: L -0.164; Q -0.115; I -0.178; P -0.112; V -0.187; D -0.02; W -0.455; G -0.031; T -0.042; N 0.047; C -0.148; E 0.042; M -0.196; K -0.041; Y -0.146
R2: V -0.049; F -0.043; S -0.072; I -0.158; G -0.204; E -0.132; M -0.13; L -0.215; Y 0.01; W -0.453; N -0.003; D -0.109; Q -0.317; C -0.178; T -0.143; H -0.025; A -0.151
V4: T -0.111; C -0.213; F -0.156; P -0.238; I -0.018; K -0.053; A -0.061; G -0.094; W -0.602; E 0.037; Q -0.099; M -0.031; D -0.011; H -0.172; N -0.104; S -0.082; Y -0.099; L -0.031; R -0.24
A6: W -0.453; Q -0.331; L -0.661; D -0.191; R -0.401; P -0.306; S -0.191; V -0.488; E -0.17; G -0.045; Y -0.155; F -0.573; T -0.44; C -0.225; H -0.534; M -0.418
K1: T -0.06; L -0.048; I 0; M 0.004; Y -0.105; A -0.287; R -0.199; V -0.136; Q -0.196; N -0.191; F -0.245; W -0.205; C -0.367; D 0.006; H -0.212; S -0.276; G -0.08; E -0.139
M7: E -0.045; Q 0.012; A -0.038; L -0.086; K -0.015; F -0.015; D -0.144; I -0.151; T -0.22; S -0.056; C -0.066; G -0.131; R -0.043; P -0.053; N -0.086; H -0.028
P3: E -0.059; G -0.083; L -0.068; T 0.021; S -0.014; H -0.061; Y -0.071; V -0.02; W -0.297; Q -0.011; R -0.095; F -0.021; A -0.137; D -0.04; C -0.264; I 0.036

Variants of: B2
Experiment: as above
Conditions: Homo sapiens

Abundance fitness, by site and new letter:
L74: A 0.404; Y -0.446; M 0.292; W 0.081; S -0.081; E 0.662; R 0.484; P -0.205; Q 0.244; T 0.151; H 0.041; G 0.183; I -0.381; D 0.145; V -0.195; N 0.453
V73: S 0.167; T -0.167; R 0.149; W -0.167; A 0.236; Q -0.309; E -0.027; L 0.268; D -0.521; G -0.188
S66: Y 0.382; G -0.392; L 0.068; E -0.473; P -0.834; A -0.222; M -0.002; R -0.059; H 0.295; V -0.235; T -0.617; Q -0.618; K 0.067
E70: P 0.069; R -0.687; S 0.067; C 0.121; L -0.055; A -0.096; D 0; M -0.152; G -0.116; I 0.781; Q 0.199; W -0.918; T -0.048; V -0.066
G71: I 0.317; R 0.501; E 0.62; A 0.156; H -0.037; T 0.414; L -0.105; M 0.721; C -0.535; S 0.453; D 0.351; W -0.219; V -0.043; K 0.337; Q 0.378
D79: Q 0.475; A 0.089; V -0.531; T -0.07; R 0.351; L 0.034; W -0.378; E 0.018; G 0.187; P 0.119; S 0.241; K 0.856
Q78: A 0.034; S 0.069; G -0.292; L 0.466; D 0.567; M -0.372; E 0.018; P -0.595; C -0.892; H 0.565; V -0.833; I -0.34; T -0.188; W -0.698; R 0.113
K65: L -0.441; P 0.325; T -0.495; A -0.268; Y -0.113; Q -0.692; E -1.07; S -1.12; D -0.711; V -0.317; M 0.26; R -0.115; G -0.779
F67: T -0.614; C 0.283; P -0.47; H 0.092; K -0.391; A -0.47; W -0.302; Q -0.338; R -0.497; M -0.567; E -0.626; L -0.852; N -0.231; G 0.039; S -0.297
K77: G -0.404; R -0.455; F -0.394; L -0.304; E -0.406; S -0.495; P -0.71; V -0.193; T -0.108; A -0.78; Q -0.149
E64: G -0.48; R -0.692; M -0.316; T -0.238; H -0.355; D 0.047; Q -0.363; V -0.359; W -0.176; I -0.344; L -0.633
C72: A -0.525; M -0.514; K -0.33; E -0.644; Q -0.317; P -0.725; S -0.935; V -0.647; W -0.53; R -0.781; L -1.04; T -0.869
F80: M 0.294; T 0.652; A 0.288; R 0.522; L 0.5; G 0.033; V 0.281; S 0.194; C 0.093; W -0.146; P 0.525
L75: D 0.492; G 0.276; W -0.561; S 0.258; T -0.078; M 0.176; A 0.615; V -0.551; N 0.227; E 0.268; K 0.318; Q 0.573; H -0.295; P -0.268; C 0.373
S69: W -0.623; K -0.282; P -0.445; E -0.341; V -0.534; A -0.023; Q -0.638; D -0.702; I -0.15; G -0.64; C 0.093; R -0.456
Y76: V -0.317; T -0.038; H 0.329; Q -0.179; K -0.048; W -0.542; D -0.176; G -0.28; M -0.524; E -0.107; S -0.473; L -0.663; N 0.757
C68: K -0.525; G -0.88; E -0.911; M -0.505; Q -0.558; R -0.892; A -0.93; S -0.619; W -1.18
